The nanobody polyreactivity screen of Harvey et al. (2022)

Experiment: yeast display, Sf9 membrane polyspecificity reagent, FACS + sequencing; frameworks hold sequencing errors
Outline: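 Galactose induction of a Saccharomyces cerevisiae BJ5465 synthetic nanobody display library ran 36–48 hours. The cells were then stained for 1 hour at 4 °C with 10% biotinylated, detergent-solubilized Sf9 membrane reagent, pulled down on streptavidin microbeads and FACS-sorted into low and high (top ~1%) gates on expression and reagent-binding fluorescence. Labels for polyreactivity follow the gate of origin.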

**Q.** Which “polyreactivity (PSR sort gate)” value does the source give for “QVQLVESGGGLVQAGGSLRLSCAASGYISFGYAMGWYRQAPGKEREFVAAISVGGGTTYYADSVKGRFTISRDNAKNTVYLQMNSLKPEDTAVYYCAARSYSYAPRRGYWGQGTQVTVSS” here?
**A.** high polyreactivity

**Q.** Which “polyreactivity (PSR sort gate)” value does the source give for “QVQLVESGGGLVQAGGSLRLSCAASGYMFGGYAMGWYRQAPGKAREFVAAISDISGSTYYADSVKGRFTISRDNAKNTVYLQMNSLKPEDTAVYYGGHTSTADEDYWGQGTQVTVSS” here?
**A.** low polyreactivity

**Q.** Which “polyreactivity (PSR sort gate)” value does the source give for “QVQLVESGGGLVQAGGSLRLSCAASGYMGWYRQAPGKERELVATISGSGGSPYYADSVKGRFSISRDNAKNTVYLQMNSLKPEDTARYYCTTEIWGVNRSGYDYWGQGTQVTVSS” here?
**A.** low polyreactivity

**Q.** Which “polyreactivity (PSR sort gate)” value does the source give for “QVQLVESGGGLVQAGGSLRLSCAASGYNFDGYAMGWYRQAPGKERELVAAINSGGGTYYADSVKGRFTISRDNAKNTVYLQMNSLKPEDTAVYYCSKYTYDYWGQGTQVTVSS” here?
**A.** low polyreactivity

**Q.** For “QVQLVESGGGLVQAGGSLRLSCAASGYNFGVYAMGWYRQAPGKERELVAAINGGDSTYYADSVKGRFTISRDNAKNTVYLQMNSLKPEDTAVYYCAADPYSVYGGDYWGQGTQVTVSS”, which “polyreactivity (PSR sort gate)” value is on record?
**A.** low polyreactivity

**Q.** With “QVQLVESGGGLVQAGGSLRLSCAASGYNFYVNGMGWYRQAAGTERELVARITLSGTSTYYADSVKGRITISRDYAKNTVYLQMNSLKPDDTAVYYCAAPYFTYGLDVDVYWGQGTQVTVSS” as the sequence, how does the “polyreactivity (PSR sort gate)” value read?
**A.** low polyreactivity

**Q.** With “QVQLVESGGGLVQAGGSLRLSCAASGYRFERNAMGWYIQAPGKERELVAAITDDGDDTYYADSVKGRFTISRDNAKNTVYLQINSLKPEDYAVYYWAKDLYYGDYYYWGQGTQVTVSS” as the sequence, how does the “polyreactivity (PSR sort gate)” value read?
**A.** low polyreactivity

**Q.** Which “polyreactivity (PSR sort gate)” value does the source give for “QVQLVESGGGLVQAGGSLRLSCAASGYTFARNAMGWYIQAPGKERELVAAISSSGGRTYYADSVKGRFTISRDNAKNTVYLQMNSLKPEDTAVYYCNTGYYRTGSYDYWGQGTQVTVSS” here?
**A.** high polyreactivity

**Q.** Which “polyreactivity (PSR sort gate)” value does the source give for “QVQLVESGGGLVQAGGSLRLSCAASGYTFAYYTMGWYRQAPGKERELVAAINRSGGSTNYADSVKGRFTISRDNAKNTVYLQMNSLKPEDTAVYYCAADYFFRRGPGAVFIGRYGYWGQGTQVTVSS” here?
**A.** high polyreactivity

**Q.** Which “polyreactivity (PSR sort gate)” value does the source give for “QVQLVESGGGLVQAGGSLRLSCAASGYTFDGYPRGWYRQAPGKERELVAVITKSGGRTYYADSVKGRFTNSRDNAKNTVYLQMNSLKPEDTAVYYCAADDSGTKDIVEGEYWGQGTQVTVSS” here?
**A.** high polyreactivity

**Q.** Which “polyreactivity (PSR sort gate)” value does the source give for “QVQLVESGGGLVQAGGSLRLSCAASGYTFEDNAMGWYRQAPGKERELVAAIDWSGDSTYYADSVKGRFTISRDNAKNTVYLQMNSLKPEDTAVYYCSADYTTWTDMDYWGQGTQVTVSS” here?
**A.** low polyreactivity

**Q.** With “QVQLVESGGGLVQAGGSLRLSCAASGYTFFTNAMGWYRQAPGKEREFVAAISKSGGNTYYADSVKGRFTISRDNAKNTVYLQMNSRKPEDTAVYYCAAQHRGYAGPRPYYYWGQGTQVTVSS” as the sequence, how does the “polyreactivity (PSR sort gate)” value read?
**A.** high polyreactivity

**Q.** For “QVQLVESGGGLVQAGGSLRLSCAASGYTFFTNVMGWYRKAPGKERELVATITAGGSTYADSVKGRFTISRDNAKNTFYLQMNSLKPEDTAVYYCAVDALTGAWLGGYPYWADGYDYWGQGTQVTVSS”, which “polyreactivity (PSR sort gate)” value is on record?
**A.** low polyreactivity

**Q.** Which “polyreactivity (PSR sort gate)” value does the source give for “QVQLVESGGGLVQAGGSLRLSCAASGYTFFVYAMGWYRQAPGKERELVAAIDLNGGSTSYADSVKGRFTISRDNAKNTVYLQMNSLKPEDTAVYYCAAYSWVGYDYDYWGQGTQVTVSS” here?
**A.** low polyreactivity

**Q.** For “QVQLVESGGGLVQAGGSLRLSCAASGYTFGFYTRGWYRQAPGKERELVAGISWSGGSTYYADSVKGRFTISRDNAKNTVYLQMNSLKPEDTAVYYCATRWRGRYDYWGQGTQVTVSS”, which “polyreactivity (PSR sort gate)” value is on record?
**A.** high polyreactivity

**Q.** For “QVQLVESGGGLVQAGGSLRLSCAASGYTFGGNAMGWYRQAPGKERELVAAISSGGSTNYADSVKGRFTISRDNAKNTVYLQMNSLKPEDTAVYYCNKRGYYYWSGQDVASYDYWGQGTQVTVSS”, which “polyreactivity (PSR sort gate)” value is on record?
**A.** low polyreactivity

**Q.** For “QVQLVESGGGLVQAGGSLRLSCAASGYTFGKNAMGWYRQAPGKERELVAAISRSGGSTFYADSVKGRFTISRDNAKHTVYLQMNSLKPEDTAVYYCAARSYVRFDYWGQGTQVTVSS”, which “polyreactivity (PSR sort gate)” value is on record?
**A.** high polyreactivity

**Q.** With “QVQLVESGGGLVQAGGSLRLSCAASGYTFGQYAMGWYRQAPGKEREFVAAINRSGGSTYYADSVKGRFTISRDNAKNTVYLQMNSLKPEDTAVYYCNAGYRRSSHFREHDYWGQGTQVTVSS” as the sequence, how does the “polyreactivity (PSR sort gate)” value read?
**A.** high polyreactivity

**Q.** With “QVQLVESGGGLVQAGGSLRLSCAASGYTFGRYAMGWYSQAPGKERELVAAITKSGGRTSYADSVKGRFTISRDNEKNTVYLQMTSLKPEDTAVYYCNKVRFQPYWVVYATGDYWGQGTQVTVSS” as the sequence, how does the “polyreactivity (PSR sort gate)” value read?
**A.** high polyreactivity

**Q.** For “QVQLVESGGGLVQAGGSLRLSCAASGYTFGSNAMGWYRQAPGKERELVAAIRYRGDRTYYADSVKGRFTISRDNAKNTVYLQMNSLKPEDTAVYYCAATYGYNTLYRPLRFDYWGQGTQVTVSS”, which “polyreactivity (PSR sort gate)” value is on record?
**A.** high polyreactivity

**Q.** For “QVQLVESGGGLVQAGGSLRLSCAASGYTFGSNAMGWYRQAPGKERELVADIDWSSGNTYYADSVKGRFTISRDNAKNTVYVQMNSLKPEDTAVYYCAAELLIYYSWYWYDYWGQGTQVTVSS”, which “polyreactivity (PSR sort gate)” value is on record?
**A.** high polyreactivity

**Q.** For “QVQLVESGGGLVQAGGSLRLSCAASGYTFGSYAMGWYRQAPGKERELVAAISKRGGRTYYADSVKGRFTISRDNAKNTVYLQMNSLKPEDTAVYYCAKDYPKYDYWGQGTQVTVSS”, which “polyreactivity (PSR sort gate)” value is on record?
**A.** high polyreactivity

**Q.** With “QVQLVESGGGLVQAGGSLRLSCAASGYTFGVNAMGWYRQAPGKERELVAAISRSGGRTYYADSVKGRFTISRDNAKNTVYLQMTSLKPEDTAVYYCAKDRSGSYYNFPEYDYWGQGTQVTVSS” as the sequence, how does the “polyreactivity (PSR sort gate)” value read?
**A.** high polyreactivity

**Q.** With “QVQLVESGGGLVQAGGSLRLSCAASGYTFGVYVMGWYREAPGKERELVAAISGSTYYADSVKGRFTISRDNAKNTVYVQMNSLKPEDTAVYYCAAESYFFSPRTREKFDYWGQGTQVTVSS” as the sequence, how does the “polyreactivity (PSR sort gate)” value read?
**A.** low polyreactivity

**Q.** Which “polyreactivity (PSR sort gate)” value does the source give for “QVQLVESGGGLVQAGGSLRLSCAASGYTFGVYVMGWYRQAPGKERELVAAISGSTYYADSVKGRFTISRDNAKNTVYLQMNSLKPEDTAVYYCAAESYFFSPRTREKFDYWGQGTQVTVTS” here?
**A.** low polyreactivity

**Q.** With “QVQLVESGGGLVQAGGSLRLSCAASGYTFIRNGMGWYRQAPGKERDLVAAISRRGGSTYYADSVKGRFTISRDNAKNTVYLQMNRLKPEDTAVYYCAKASTERMGSWGQGTQVTVSS” as the sequence, how does the “polyreactivity (PSR sort gate)” value read?
**A.** high polyreactivity

**Q.** For “QVQLVESGGGLVQAGGSLRLSCAASGYTFIYYAMGWYRQAPGTERELVATISIDGSTNYADSVKGRFTISRDNAKNTVYLQMNSLKPEDTAVYYCNRERYEDYDYWGQGTQVTVSS”, which “polyreactivity (PSR sort gate)” value is on record?
**A.** high polyreactivity

**Q.** For “QVQLVESGGGLVQAGGSLRLSCAASGYTFKRYAMGWYRQAPGKERELVAAISQSGTNTYYADSVKGRFTISRDNAKNTVYLQMNSLKPEDTAVYYCAAKPPRRYQLMDYWGQGTQVTVSS”, which “polyreactivity (PSR sort gate)” value is on record?
**A.** high polyreactivity

**Q.** With “QVQLVESGGGLVQAGGSLRLSCAASGYTFKSYALGWYRQAPGKERELVASISNDGSTNYADSVKGRFTISRDNAKNTVYLQMNSLKPEDTAVYYCNADFYDAPSQWARTGFDYWGQGTQVTVSS” as the sequence, how does the “polyreactivity (PSR sort gate)” value read?
**A.** low polyreactivity

**Q.** Which “polyreactivity (PSR sort gate)” value does the source give for “QVQLVESGGGLVQAGGSLRLSCAASGYTFKTNDMGRYRQAPGKEREFVAAIDSGGNTYYADSVKGRFTISRDNAKITVYLQMNSLIPEDTAVYYCGAYRDYQYDYWGQGTQVTVSS” here?
**A.** low polyreactivity

**Q.** For “QVQLVESGGGLVQAGGSLRLSCAASGYTFKYYTMGWSRQAPGKERELVAAITGGGSTYYADSVKGRFTISRDNAKNTVYLQMNSLKPEDTAVYYCAATVLYGYHKAYDYWGQGTQVTVSS”, which “polyreactivity (PSR sort gate)” value is on record?
**A.** high polyreactivity

**Q.** Which “polyreactivity (PSR sort gate)” value does the source give for “QVQLVESGGGLVQAGGSLRLSCAASGYTFKYYTMGWYRQAPGKESELVAAITRSGGSTYYADSVKGRFTISRDNAKNTVYLQINSLKPEDTAVYYCAARAAYKQPVSFDYWGQGTQVTVSS” here?
**A.** high polyreactivity

**Q.** With “QVQLVESGGGLVQAGGSLRLSCAASGYTFLGNAMGWYRQAPGKERELVAAISSGGTTYYADSVKGRFTISRDNAKNTVYLQMNSMKPEDTSVYYCADDRVGLSSGYDFWGQGTQVTVSS” as the sequence, how does the “polyreactivity (PSR sort gate)” value read?
**A.** low polyreactivity

**Q.** Which “polyreactivity (PSR sort gate)” value does the source give for “QVQLVESGGGLVQAGGSLRLSCAASGYTFLGNAMGWYRQAPGKERELVAAISSGGTTYYADSVKGRFTISRDNEKNTVYFQMNSLKPEDTAVYFCATVFRDYDFNHWGQGTQVTVSS” here?
**A.** low polyreactivity

**Q.** With “QVQLVESGGGLVQAGGSLRLSCAASGYTFLPYALGWYRQAPGKERELVAAINWGGGSTYYADSVKGRFTISRDNAKNTVYLQMNSLKPEDTAVYYCNAKRPFGGLDYWGQGSQVTVSS” as the sequence, how does the “polyreactivity (PSR sort gate)” value read?
**A.** low polyreactivity

**Q.** For “QVQLVESGGGLVQAGGSLRLSCAASGYTFLPYAMGLYRQAPGKERELVADISSGGTTYYADSVKGRFTISRDNAKNTVYLQMNSLKPEDTAVYYCARASLPTYDWGQGTQVTVSS”, which “polyreactivity (PSR sort gate)” value is on record?
**A.** low polyreactivity

**Q.** Which “polyreactivity (PSR sort gate)” value does the source give for “QVQLVESGGGLVQAGGSLRLSCAASGYTFLRYAMGWYRQAPGKERELVAAISRRGGRTYYADSVKGRFTISRDNAKNTVYLQMNSLKPEDTAVYYCAAVNSTQTIGLMDYWGQGTQVTVSS” here?
**A.** high polyreactivity

**Q.** Which “polyreactivity (PSR sort gate)” value does the source give for “QVQLVESGGGLVQAGGSLRLSCAASGYTFLYNAMGWYRQAPGKERELVAAISWNGGRTYYADSVKGRFTISRDNAKNTVYLQMNSLKPEDTAVYYCAKTPSYGRNVDYWGQGTQVTVSS” here?
**A.** high polyreactivity

**Q.** With “QVQLVESGGGLVQAGGSLRLSCAASGYTFNIYAMGWYRQAPGKERELVAAITSRGGGTYYADSVKGRFTISRDNAKNTVYLQMNSLKPEDTAVYYCAADVYSYYHWYTHYDYWGQGTQVTVSS” as the sequence, how does the “polyreactivity (PSR sort gate)” value read?
**A.** high polyreactivity

**Q.** For “QVQLVESGGGLVQAGGSLRLSCAASGYTFNYYAMGWYRQAPGKEREFVASTYADSVKGRFTISRDNAKNTVYLQMNSLKPEDTAVYYCNARNLGRYLVLSYGYWRQGTQVTVSS”, which “polyreactivity (PSR sort gate)” value is on record?
**A.** low polyreactivity

**Q.** With “QVQLVESGGGLVQAGGSLRLSCAASGYTFPFYTMGWYRQAPGKERELVAAISNSGTSTYYADSVKGRFTISRHNAKNTVYLQMNSLKPEDTAVYYSNAGRGTRFVYIDGMDYWGQGTQVTVSS” as the sequence, how does the “polyreactivity (PSR sort gate)” value read?
**A.** high polyreactivity
